In experiment [1] the target is SARS-CoV-2 spike receptor binding domain with C-terminal 3xFlag tag (RBD-3xFlag) (SARS-CoV-2) (UniProt P0DTC2).
The target is the same in experiment [2]. This is another data set of the same source.

For the substance VHH72, the ELISA A450 in experiment [1] amounted to 0.287 A450. Also, the heated/non heated ratio of ELISA reading in experiment [2] stood at 0.33.

(Values after patent US20230303666A1.)
